# Where a chain is given by its changes, count along the chain named.
# B1: 4H1: RXFP2 monoclonal antibody from hybridoma, recombinantly expressed in a rat IgG2b backbone (antibody, V domains shown)
# VH: QIQLVQSGPELKKPGETVKISCKTSGYTFTKYPMHWVKQAPGEGLKWMGWINTYSGLPTFADDFKGRFAFSLETSANTADLQINNLKNEDMATYFCAREGKKLSGYFDYWGQGTTLTVSS
# VL: DIKMTQSPSSMYASLGERVTITCKASQDINSYLTWFQQKPGQSPKTLIYRANRFVDGVPSRFSGSGSGQDYSLTITSLEYEDMGIYYCLQYDEFPYTFGGGTQLEIK
# B2: 3F1: RXFP2 monoclonal antibody from hybridoma, recombinantly expressed in a rat IgG2b backbone (antibody, V domains shown)
# VH: QVQLKESGPGLVAPSQSLSITCTVSGFSLTDYGVSWIRQPPGKGLEWLGVIWGGGSTDYNPALKSRLSISKDNSKSQVFLKMNSLQADDTAMYYCVKHEGYYAMDYWGQGTSVTVSS
# VL: DIQMTQSPASLSVSVGETVTITCRASENIYSNLAWYQQKQGKSPHLLVYAVTNLADGVPSRFSGSGSGTQYSLKINSLQSEDFGSYYCQHFWGTPYTFGGGTKLEIK
# B3: 4B8: RXFP2 monoclonal antibody from hybridoma, recombinantly expressed in a rat IgG2b backbone (antibody, V domains shown)
# VH: QVQLKQSGPGLVQPSQSLSITCTVSGFSLSRYGVHWVRQSPGKGLEWLGVIWSGGSTEYNAVFKSRLSISKDNSKSQVFFKMNSLQANDTAIYYCVRADGYYAMEYWGQGTSVTVSS
# VL: B2 VL with H45Q, S85N
# B4: 1G1: RXFP2 monoclonal antibody from hybridoma, recombinantly expressed in a rat IgG2b backbone (antibody, V domains shown)
# VH: EVQLQQSGPELVKPGASVKMSCKASGYTFTDYNMHWVKQKPGQGLEWIGYINPYNDGTEYNEKFKGKATLTSDKSSSTAYMDLSSLTSEDSAVYYCARGLWFAMNYWGQGTSVTVSS
# VL: DIQMTQSSSSFSVSLGDRVTITCKASEDIYNRLAWYQQKPGNTPRLLISGATILETGVPSRFSGSGSGKDYTLSIISLQTEDVATYYCQQYWIIPPTFGGGTKLEIK
# B5: 3F3: RXFP2 monoclonal antibody from hybridoma, recombinantly expressed in a rat IgG2b backbone (antibody, V domains shown)
# VH: QVQLQQPGSVLVRPGASVKLSCKASGYIFTSYWMHWVKQRPGQGLEWIGEIYPNSGRTSYNEKFKGKATVTVDTSSSTAYVDLSSLTSEDSAVYYCASGGHWFAYWGQGTLVTVSA
# VL: B4 VL with T43A, I53S, T56A, I76T, A84S, I94T, P96Y
# B6: 3H1: RXFP2 monoclonal antibody from hybridoma, recombinantly expressed in a rat IgG2b backbone (antibody, V domains shown)
# VH: QVQLKETGPGLVAPSQSLSITCTVSGFSLTNYGVNWVRQPPGKGLEWLVVIWSDGSTNYNSALKSRLSISKDNSKSQVFLKMNSLQTDDTAMYYCARQQGYYAMDYWGQGTSVIVSS
# VL: B2 VL with H45Q, T94P
# B7: 4A5: RXFP2 monoclonal antibody from hybridoma, recombinantly expressed in a rat IgG2b backbone (antibody, V domains shown)
# VH: DVQLVESGGGLVQPGGSRKLSCAASGFTFSTFGMHWVRQAPEKGLEWVAYISSGSSTIYYADTVKGRFTISRDNPKNTLFLQMTSLRSDDTAMYYCSRSYYGSAHYFDYWGQGTTLTVSS
# VL: B2 VL with H45Q, A50V, V51A, K74R, S77N, S85N, Y96P
# B8: 4H2: RXFP2 monoclonal antibody from hybridoma, recombinantly expressed in a rat IgG2b backbone (antibody, V domains shown)
# VH: QVQLRQSGPSLVQPSQSLSITCTVSGFSLTNYGVHWVRQSPGKGLEWLGVIWRGGNTDHNAAFMSRLSITKDNSESQVFFKMNSLQVDDTAIYYCAKAEGYYALDYWGQGTSVTVYS
# VL: B2 VL with H45Q, Y96W
# B9: 4H5: RXFP2 monoclonal antibody from hybridoma, recombinantly expressed in a rat IgG2b backbone (antibody, V domains shown)
# VH: QVQLKQSGPGLVQPSQSLSITCTVSGFSLTNYGVHWVRQSPGKGLEWLGVIWRDGNTDYNAAFMSRLSITKDNSKSQVFFEMNSLQVDDTAIYYCCRGDGYYAMGYWGQGTSVTVSS
# VL: B2 VL with K39R, K42R, H45Q, V51A, S85N, T94S, Y96R
# B10: 3G4: RXFP2 monoclonal antibody from hybridoma, recombinantly expressed in a rat IgG2b backbone (antibody, V domains shown)
# VH: QVQLKESGPGLVAPSQSLSITCTVSGFSLTSYGVSWVRQPPGKGLEWLGVIWGDGSTNYHSALISRLSISKDNSKSQVFLKLNSLQTDDTATYYCAKSLGYYAMDYWGQGTSVTVSS
# VL: B2 VL with A34V, H45Q, V51A, D56E, T94P, Y96W
# Target: human RXFP2 (Homo sapiens, UniProt Q8WXD0)
# Sequence (Q8WXD0 whole entry): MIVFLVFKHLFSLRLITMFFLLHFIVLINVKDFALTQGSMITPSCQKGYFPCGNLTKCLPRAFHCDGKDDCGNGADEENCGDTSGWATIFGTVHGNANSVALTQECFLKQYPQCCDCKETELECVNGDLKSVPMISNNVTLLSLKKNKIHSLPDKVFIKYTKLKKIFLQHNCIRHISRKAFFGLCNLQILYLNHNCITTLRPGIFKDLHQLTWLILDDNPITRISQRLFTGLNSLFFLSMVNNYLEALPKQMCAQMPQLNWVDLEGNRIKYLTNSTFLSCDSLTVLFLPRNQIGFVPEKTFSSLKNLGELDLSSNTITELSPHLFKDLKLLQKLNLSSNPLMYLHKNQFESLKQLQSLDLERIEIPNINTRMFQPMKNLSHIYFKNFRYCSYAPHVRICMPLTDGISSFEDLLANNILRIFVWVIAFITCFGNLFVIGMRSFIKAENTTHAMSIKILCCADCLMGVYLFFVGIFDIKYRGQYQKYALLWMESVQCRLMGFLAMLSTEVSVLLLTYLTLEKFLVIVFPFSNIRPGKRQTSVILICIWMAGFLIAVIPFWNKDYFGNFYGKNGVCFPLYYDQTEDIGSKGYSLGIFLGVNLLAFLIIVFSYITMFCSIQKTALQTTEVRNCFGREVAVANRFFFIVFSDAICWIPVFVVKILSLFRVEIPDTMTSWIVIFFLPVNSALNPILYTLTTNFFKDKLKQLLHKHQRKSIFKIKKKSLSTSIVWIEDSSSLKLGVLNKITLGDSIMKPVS
# Assay: INSL3-stimulated cAMP assay in HEK293 stably expressing human RXFP2
# Conditions: read-out: HEK293-human RXFP2 cAMP IC50; INSL3 EC80-stimulated cAMP, stable expression; N = 2
# Procedure: (§3) RXFP activity assays were developed in HEK293 with stable expression of RXFP2 or RXFP1.
# (§4) The same approach was used to generate stable HEK293 lines expressing human and rat RXFP1 and RXFP2 cDNA. The cAMP assay was conducted using the Eurofin Hithunter kit per manufacturer’s instructions in a 384-well format. All dose curve fitting and EC50 and IC50 determinations were performed in Prism (v9.3.0) using the non-linear fit, variable slope (four parameter) function.
row,IC50,Molecule
1,~218000 pM,B1
2,~589000 pM,B2
3,~116000 pM,B3

# System: not listed separately
# Assay: Pharmacokinetic study of RXFP2 mAbs in rat
# Assay type: in vivo, Wistar Han rats
# Conditions: Wistar Han rats, 1 mg/kg sc., over 28 days
# Procedure: For the pharmacokinetic study of RXFP2 mAbs in rat, 1G1, 2D4, 4B1, 4G6, 1F2, and 3F3 were prepared in phosphate buffered saline (0.100 mg/mL) with low endotoxin (≤ 0.76 EU/mL). Adult male Wistar Han rats (n = 3/mAb) were administered 1 mg/kg subcutaneously (10 mL/kg). Blood samples (100 µL) were collected in EDTA containing tubes at 0.25, 3, 6 24, 48, 96, 168 (day 7), 336 (day 14), 504 (day 21), and 672 (day 28) hours post dose, immediately centrifuged (6100 rpm), and 50 µL plasma stored at − 80 °C until assay. Rats maintained health throughout the study and were anesthetized (isoflurane to effect) and euthanized on day 28.
# Frozen rat plasma samples were thawed and analyzed using a qualified analytical method based on sample dilution, followed by Electrochemiluminescence immunoassay analysis. The lower limit of quantification (LLQ) was 0.1 µg/mL using a 10 µL aliquot of 51-fold diluted rat plasma with a higher limit of quantification (HLQ) of 10 µg/mL. RXFP2 mAbs were captured with LDLa protein and detected with sulfo-tag labeled mouse anti-rat IgG2b. The computer systems that were used to acquire and quantify data included Gyrolab Workstation Version 8.1.5 and Watson LIMS version 7.6.1. Rat pharmacokinetic parameters were calculated by non-compartmental analysis (NCA) analysis using WinNonlin Phoenix 64 (version 8.3). Values are reported in mean ± standard deviation.
row,Molecule,"half-life, extrapolated values"
1,B4,≥ 264 h
2,B5,≥ 264 h

# Same assay, conditions: from trough concentration, dose-linearity assumed
row,Molecule,estimated dose to achieve tenfold higher IC50 HEK-rRXFP2 cAMP activity for approximately 28 days in rat
1,B4,approximately 10 mg/kg

# Same assay, conditions: male Wistar Han rats, 1 mg/kg s.c., n = 3, mean ± SD
Molecule,AUClast,Cmax,Tmax
B4,4490 ± 467 µg·h/mL,9820 ± 766 ng/mL,120 ± 42 h
B5,987 ± 200 µg·h/mL,2350 ± 858 ng/mL,168 ± 0 h

# Target: T1, rat RXFP2 (Rattus norvegicus, UniProt F7EMH8)
# T1 sequence (F7EMH8 20-737): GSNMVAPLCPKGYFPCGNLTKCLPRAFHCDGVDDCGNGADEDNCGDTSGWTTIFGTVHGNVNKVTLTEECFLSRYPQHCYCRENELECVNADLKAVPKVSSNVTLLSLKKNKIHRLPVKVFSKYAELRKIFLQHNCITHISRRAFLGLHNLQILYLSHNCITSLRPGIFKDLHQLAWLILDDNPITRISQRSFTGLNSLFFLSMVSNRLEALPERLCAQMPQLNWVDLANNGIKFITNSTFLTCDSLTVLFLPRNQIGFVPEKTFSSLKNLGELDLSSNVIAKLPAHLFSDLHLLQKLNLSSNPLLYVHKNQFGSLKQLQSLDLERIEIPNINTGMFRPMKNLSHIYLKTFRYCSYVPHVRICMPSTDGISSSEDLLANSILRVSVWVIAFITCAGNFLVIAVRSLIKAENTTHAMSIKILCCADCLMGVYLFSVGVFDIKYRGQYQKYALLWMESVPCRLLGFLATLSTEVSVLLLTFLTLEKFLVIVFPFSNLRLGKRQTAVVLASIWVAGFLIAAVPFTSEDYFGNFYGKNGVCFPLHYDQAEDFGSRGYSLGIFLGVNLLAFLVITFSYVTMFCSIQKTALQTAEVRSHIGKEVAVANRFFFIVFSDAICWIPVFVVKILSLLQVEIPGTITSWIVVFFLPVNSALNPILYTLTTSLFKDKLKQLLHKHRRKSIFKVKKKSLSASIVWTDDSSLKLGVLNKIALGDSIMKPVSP
# Assay: INSL3-stimulated cAMP assay in HEK293 stably expressing rat RXFP2;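 note: cAMP measured with an HitHunter kit in 384-well plates, 11-point dose–response curves up to 1 µM antibody, four-parameter variable-slope fit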
# Conditions: INSL3 EC80-stimulated cAMP, stable expression; N = 2
# Procedure: as §3, §4
row,HEK293-rat RXFP2 cAMP % Max Response,Molecule
1,69.7%,B1
2,87.2%,B4
3,78.5%,B5
4,69.7%,B2
5,71.6%,B6
6,86.6%,B3
7,91.0%,B7
8,85.7%,B8
9,89.2%,B9
10,83.3%,B10

# Same assay, conditions: read-out: HEK293-rat RXFP2 cAMP IC50; INSL3 EC80-stimulated cAMP, stable expression; N = 2
row,IC50,Molecule
1,150000 pM,B1
2,28000 pM,B4
3,37000 pM,B5
4,19900 pM,B2
5,15800 pM,B6
6,21400 pM,B3
7,23200 pM,B7
8,18900 pM,B8
9,14200 pM,B9
10,16100 pM,B10

# Target: T1, rat RXFP2
# Assay: INSL3-stimulated CYP11B1 mRNA expression in H295R stably expressing rat RXFP2
# Assay type: cell-based
# Parameters: expressed in transfected cells
# Conditions: INSL3 EC80 (3.5 nM), 48 h, qPCR; N = 2
# Procedure: (§1) RXFP2 antagonists were added to H295R-rRXFP2 before addition of INSL3 EC80 (3.5 nM) for 48 h, whereupon the cells and supernatants were collected. CYP11B1 and CYP11B2 mRNA were determined by qPCR and the RXFP2 blocker potencies were calculated (Fig. 5a). Fifteen antibodies have IC50s < 50 nM, and three of the top antibodies (1F2, 4G6, and 2D4) were selected for evaluation in steroid hormone secretion assays by ELISA.
# (§2) Data entered as XY table, with x = [Inhibitor] (nM) and y = CYP11B2 or CYP11B1 fold change.
row,IC50,Molecule
1,270 pM,B4
2,3850 pM,B5
3,270 pM,B2
4,330 pM,B6
5,230 pM,B3
6,2850 pM,B7
7,260 pM,B8
8,210 pM,B9
9,330 pM,B10

# Target: T1, rat RXFP2
# Assay: INSL3-stimulated CYP11B2 mRNA expression in H295R stably expressing rat RXFP2
# Assay type: cell-based
# Parameters: expressed in transfected cells
# Conditions: INSL3 EC80 (3.5 nM), 48 h, qPCR; N = 2
# Procedure: as §1, §2
row,IC50,Molecule
1,170 pM,B4
2,510 pM,B5
3,230 pM,B2
4,160 pM,B6
5,170 pM,B3
6,310 pM,B7
7,130 pM,B8
8,150 pM,B9
9,200 pM,B10

# Source: PMC11162469, “Discovery of RXFP2 genetic association in resistant hypertensive men and RXFP2 antagonists for the treatment of resistant hypertension” (Scientific Reports, 2024)
